Drawing on publication PMC8136769, “Structural variation affecting DNA backbone interactions underlies adaptation of B3 DNA binding domains to constraints imposed by protein architecture”, this text covers Kd for one molecule.

The target in one data set is T1, GST-LEC2-B3 (Arabidopsis thaliana, UniProt Q1PFR7).
T1 chain: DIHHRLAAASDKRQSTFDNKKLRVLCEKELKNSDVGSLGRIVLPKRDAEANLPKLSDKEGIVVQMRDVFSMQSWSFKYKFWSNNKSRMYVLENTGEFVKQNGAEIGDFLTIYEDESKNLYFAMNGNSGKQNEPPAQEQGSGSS
Description: EMSA; BLI: Octet Qke, 1x Kinetics Buffer (ForteBio), pH 7.0, 0.05 uM biotinylated probe on streptavidin, temperature not stated; EMSA: MgCl2, 0.05% NP-40, 0.5 nM probe, 15 ul, room temperature 20 min, 6% gel in 0.5x TBE (rest of buffer not in material). As to conditions: protein: recombinant; tags: GST (N-terminal, pGEX-2T); label: 5' biotin on strand 1 (strand 2 oligo also named 5-Biotin-probe); blunt. In general terms: In EMSA bound probe runs differently from free probe, usually more slowly.

Another data set has as its target T2, GST-FUS3-B3 (Arabidopsis thaliana, UniProt Q9LW31).
T2 chain: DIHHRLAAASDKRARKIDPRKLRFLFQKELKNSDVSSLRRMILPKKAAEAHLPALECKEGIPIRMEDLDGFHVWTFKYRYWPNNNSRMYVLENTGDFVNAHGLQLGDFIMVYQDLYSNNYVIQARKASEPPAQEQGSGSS
The description is as above. The settings on record: protein: recombinant; tags: GST (N-terminal, pGEX-2T); label: 5' biotin on strand 1 (strand 2 oligo also named 5-Biotin-probe); blunt.

B1: Sph2 probe (dsDNA)
DNA 1: CACGGATCATGCATGGACGACACGGATCATGCATGGACGACACG
DNA 2: CGTGTCGTCCATGCATGATCCGTGTCGTCCATGCATGATCCGTG
As to B1, the Kd (in general, the constant that tells how readily two partners part at equilibrium) in the data set with GST-LEC2-B3 was found to be 198 nM; in the data set with GST-FUS3-B3, 1.28 nM.
